Experimental data as given in PMC4499191.
Each block holds one molecule with its values, some of them ahead of it.

Experiments:
[1] = target: Nck1 (Nck1-GFP, GST-Nck1 constructs) SH2 domain (UniProt P16333); assay: GST-Nck SH2 pull-down from lysate; settings: reference: wild type
[2] = target: T1, GST-Nck SH2, P16333; assay: GST pull-down, anti-HA immunoblot quantified by ImageJ; settings: chain shown with the change; 293T cells transiently transfected with Lck and HA-tagged TSAd constructs; lane 7
T1 chain: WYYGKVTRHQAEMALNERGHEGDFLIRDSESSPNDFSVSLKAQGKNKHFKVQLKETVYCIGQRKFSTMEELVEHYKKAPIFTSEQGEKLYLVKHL

binding against the reference ([1]; sites Y280,Y305): lost
Molecule: TSAd (T cell specific adaptor protein) (from UniProt Q9NP31) Y280,305F

binding against the reference ([1]; sites Y280): weaker
Molecule: TSAd (T cell specific adaptor protein) (from UniProt Q9NP31) Y280F

ratio to parent [2]: -0
B1: HA-tagged TSAd WT co-expressed with Lck in 293T cells (tyrosine phosphorylated), Q9NP31-1 Y280F; Y290F; Y305F (protein)
chain: MEFPLAQICPQGSHEAPIPTFSTFQITDMTRRSCQNLGYTAASPQAPEAASNTGNAERAEEVPGEGSLFLQAETRAWFQKTQAHWLLQHGAAPAWFHGFITRREAERLLEPKPQGCYLVRFSESAVTFVLTYRSRTCCRHFLLAQLRDGRHVVLGEDSAHARLQDLLLHYTAHPLSPYGETLTEPLARQTPEPAGLSLRTEESNFGSKSQDPNPQYSPIIKQGQAPVPMQKEGAGEKEPSQLLRPKPPIPAKPQLPPEVYTIPVPRHRPAPRPKPSNPIFNEPDEPIAFFAMGRGSPGEAPSNIFVEVEDEGLPATLGHPVLRKSWSRPVPGGQNTGGSQLHSENSVIGQGPPLPHQPPPAWRHTLPHNLSRQVLQDRGQAWLPLGPPQ
